The record followed here is article PMC11484851, “Structure of endothelin ETB receptor–Gi complex in a conformation stabilized by unique NPxxL motif” (Communications Biology, 2024).

The target in this experiment is T1, wild-type Gαi1 subunit (human, UniProt P63096 1-354).
T1 construct: Gαi1, human, wild type; the α chain of m4; source: Sf9 or Hi5 insect cells, co-expressed with Gβ1 and Gγ2, purified as heterotrimer (TALON, SEC)
In words: cryo-EM structure; purified ET-1-bound ETBR mixed with 1.2 molar excess of wild-type or dominant negative Gi1 heterotrimer (20-24 °C, 2 h), apyrase and λ-phosphatase, then 1.2 molar excess of scFv16; complex purified on 2A5 anti-ETBR resin and by SEC in LMNG/CHS/GDN with 0.1 μM ET-1; single-particle cryo-EM. The settings on record: both partners purified.

T1 sequence (P63096 whole entry): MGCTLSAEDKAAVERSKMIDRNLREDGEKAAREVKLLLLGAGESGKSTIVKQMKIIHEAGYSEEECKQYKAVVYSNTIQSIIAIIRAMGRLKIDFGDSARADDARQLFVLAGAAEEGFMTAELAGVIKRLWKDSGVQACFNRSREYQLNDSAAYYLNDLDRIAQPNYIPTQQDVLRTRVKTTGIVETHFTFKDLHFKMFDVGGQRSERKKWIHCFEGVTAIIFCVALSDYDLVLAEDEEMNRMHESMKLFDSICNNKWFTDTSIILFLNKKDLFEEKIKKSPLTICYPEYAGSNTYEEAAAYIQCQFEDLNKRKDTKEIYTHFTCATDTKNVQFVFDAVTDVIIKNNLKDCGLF

B1: endothelin type B receptor, thermostabilized construct used for cryo-EM (R124Y, C396A, C400A, C405A, L66-S407 after 3C cleavage) (receptor, human, UniProt P24530 66-407, looked up)
chain: LAPAEVPKGDRTAGSPPRTISPPPCQGPIEIKETFKYINTVVSCLVFVLGIIGNSTLLYIIYKNKCMRNGPNILIASLALGDLLHIVIDIPINVYKLLAEDWPFGAEMCKLVPFIQKASVGITVLSLCALSIDRYRAVASWSRIKGIGVPKWTAVEIVLIWVVSVVLAVPEAIGFDIITMDYKGSYLRICLLHPVQKTAFMQFYKTAKDWWLFSFYFCLPLAITAFFYTLMTCEMLRKKSGMQIALNDHLKQRREVAKTVFCLVLVFALCWLPLHLSRILKLTLYNQNDPNRCELLSFLLVLDYIGINMASLNSCINPIALYLVSKRFKNAFKSALCCWAQS
notes: endothelin type B receptor (ETBR), human; C-terminus truncated at S407, followed by a 3C site and EGFP-His tag that was cleaved; Residues of the 3C sites probably remain after cleavage (GP before L66, LEVLFQ after S407); also called ETBR; ETB receptor; source: Sf9, purified (TALON, 3C cleavage, SEC) in LMNG/CHS with ET-1; not shown: Flag, N-terminal, cleaved; EGFP-His9, C-terminal, cleaved
As to B1, the binding result was “binds”.
